# From patent US20160152711A1
# Tests used:
# [1] = target: sEGFR domain III (residues 310-512) (human) (UniProt P00533); assay: size exclusion chromatography (Superdex 200), 4 µM, domain III with Fab 425 and Fab C225 together
# [2] = target: sEGFR domain III (residues 310-512) (human) (UniProt P00533); assay: size exclusion chromatography (Superdex 200), 4 µM; the individual proteins elute at 15.6 mL
# [3] = target: sEGFR domain III S460P/G461N (human) (UniProt P00533); assay: as above
substance,measurement,setting,value
Fab 425,elution volume of the tripartite complex,[1],13.1 mL
same,elution volume of the complex,[2],13.9 mL
same,elution volume of the mixture,[3],15.2 mL
